Where no end group is shown, it is not given here.
What was measured:
[1] = target: chicken pp60^v-src (chicken)

## IEKIGEGTYGVVYKGRHKTT (not fully specified) [synthetic peptide based upon the site of tyrosine phosphorylation on p33^cdc2 (Y15)]
[1]
  Km (µM) of phosphorylation of the peptide by the kinase: 139 µM

## ARRPMSPKKKA [peptide Ala-Arg-Arg-Pro-Met-Ser-Pro-Lys-Lys-Lys-Ala]
GST-cyclin B/p33^cdc2
  Km (µM) of phosphorylation of the peptide by the kinase: 2.4 µM
GST-cyclinA/p33^CDK2
  Km (µM) of phosphorylation of the peptide by the kinase: 15 µM

## EAIYAAPFAKKK [synthetic abl optimal peptide …]
GST-c-abl
Chain of GST-c-abl (P00519 whole entry): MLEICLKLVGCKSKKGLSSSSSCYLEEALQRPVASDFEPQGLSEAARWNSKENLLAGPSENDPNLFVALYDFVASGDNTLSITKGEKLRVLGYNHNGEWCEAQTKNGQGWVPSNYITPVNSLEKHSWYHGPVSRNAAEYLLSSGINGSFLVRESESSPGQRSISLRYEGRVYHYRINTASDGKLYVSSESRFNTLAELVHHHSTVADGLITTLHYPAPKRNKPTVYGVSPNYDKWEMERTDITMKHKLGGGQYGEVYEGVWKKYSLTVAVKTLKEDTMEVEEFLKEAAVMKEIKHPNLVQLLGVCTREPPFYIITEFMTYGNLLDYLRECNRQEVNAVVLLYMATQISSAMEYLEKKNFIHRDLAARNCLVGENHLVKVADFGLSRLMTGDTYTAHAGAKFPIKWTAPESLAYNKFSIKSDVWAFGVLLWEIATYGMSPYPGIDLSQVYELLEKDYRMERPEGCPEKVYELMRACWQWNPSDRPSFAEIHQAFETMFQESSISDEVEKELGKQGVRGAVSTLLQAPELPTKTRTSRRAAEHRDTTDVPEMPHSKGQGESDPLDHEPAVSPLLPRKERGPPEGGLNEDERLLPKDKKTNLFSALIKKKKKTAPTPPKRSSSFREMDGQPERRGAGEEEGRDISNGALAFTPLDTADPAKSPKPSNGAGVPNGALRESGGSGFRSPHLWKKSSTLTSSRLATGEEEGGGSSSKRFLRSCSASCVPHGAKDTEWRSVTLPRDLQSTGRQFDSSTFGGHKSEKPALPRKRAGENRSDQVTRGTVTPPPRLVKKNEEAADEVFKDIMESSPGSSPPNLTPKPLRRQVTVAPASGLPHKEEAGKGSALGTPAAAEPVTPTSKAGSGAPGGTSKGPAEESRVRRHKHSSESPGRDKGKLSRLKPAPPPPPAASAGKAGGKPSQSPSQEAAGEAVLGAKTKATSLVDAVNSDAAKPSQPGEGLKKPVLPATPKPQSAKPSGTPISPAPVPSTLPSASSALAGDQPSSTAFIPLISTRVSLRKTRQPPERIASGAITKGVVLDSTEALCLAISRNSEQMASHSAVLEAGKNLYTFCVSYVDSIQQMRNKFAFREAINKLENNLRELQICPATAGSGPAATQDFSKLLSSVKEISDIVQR
  Km of phosphorylation of the peptide by the kinase: 4 µM
